Reference: PMC11484851, “Structure of endothelin ETB receptor–Gi complex in a conformation stabilized by unique NPxxL motif” (Communications Biology, 2024)

Biological target: T1, wild-type Gαi1 subunit (human, UniProt P63096 1-354)
T1 construct: Gαi1, human, wild type; the α chain of m4; source: Sf9 or Hi5 insect cells, co-expressed with Gβ1 and Gγ2, purified as heterotrimer (TALON, SEC)
Test: cryo-EM structure; purified ET-1-bound ETBR mixed with 1.2 molar excess of wild-type or dominant negative Gi1 heterotrimer (20-24 °C, 2 h), apyrase and λ-phosphatase, then 1.2 molar excess of scFv16; complex purified on 2A5 anti-ETBR resin and by SEC in LMNG/CHS/GDN with 0.1 μM ET-1; single-particle cryo-EM
Settings: both partners purified

T1 sequence (P63096 whole entry): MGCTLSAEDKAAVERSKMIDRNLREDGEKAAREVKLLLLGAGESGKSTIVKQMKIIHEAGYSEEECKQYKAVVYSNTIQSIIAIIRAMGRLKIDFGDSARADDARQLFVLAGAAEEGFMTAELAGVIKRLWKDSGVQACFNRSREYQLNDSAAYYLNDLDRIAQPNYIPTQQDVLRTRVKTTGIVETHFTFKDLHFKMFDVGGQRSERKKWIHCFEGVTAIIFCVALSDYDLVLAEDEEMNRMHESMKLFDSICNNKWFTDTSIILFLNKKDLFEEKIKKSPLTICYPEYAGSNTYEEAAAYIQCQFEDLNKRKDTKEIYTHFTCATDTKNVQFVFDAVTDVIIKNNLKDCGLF

B1: endothelin type B receptor, thermostabilized construct used for cryo-EM (R124Y, C396A, C400A, C405A, L66-S407 after 3C cleavage) (receptor, human, UniProt P24530 66-407, looked up)
chain: LAPAEVPKGDRTAGSPPRTISPPPCQGPIEIKETFKYINTVVSCLVFVLGIIGNSTLLYIIYKNKCMRNGPNILIASLALGDLLHIVIDIPINVYKLLAEDWPFGAEMCKLVPFIQKASVGITVLSLCALSIDRYRAVASWSRIKGIGVPKWTAVEIVLIWVVSVVLAVPEAIGFDIITMDYKGSYLRICLLHPVQKTAFMQFYKTAKDWWLFSFYFCLPLAITAFFYTLMTCEMLRKKSGMQIALNDHLKQRREVAKTVFCLVLVFALCWLPLHLSRILKLTLYNQNDPNRCELLSFLLVLDYIGINMASLNSCINPIALYLVSKRFKNAFKSALCCWAQS
notes: endothelin type B receptor (ETBR), human; C-terminus truncated at S407, followed by a 3C site and EGFP-His tag that was cleaved; Residues of the 3C sites probably remain after cleavage (GP before L66, LEVLFQ after S407); also called ETBR; ETB receptor; source: Sf9, purified (TALON, 3C cleavage, SEC) in LMNG/CHS with ET-1; not shown: Flag, N-terminal, cleaved; EGFP-His9, C-terminal, cleaved
  binding result: binds
